Source: US20230345975A1, “COMPOSITIONS AND METHODS OF PRESERVING MEAT SUBSTITUTES” (Wisconsin Alumni Research Foundation, priority 2016, published 2023)

Target: soybean Hb (Lba) (Glycine max, UniProt P02238)
Test: Redness (a-value) of Lba solutions after exposure to 35 fc of light for 4 days
Conditions: 35 fc light, 4 days, main effect over niacin amounts
Protocol: FIG. 2—Effect of pH and different molar ratios of niacin to soybean Hb on the redness of Lba solutions. Measurement after exposure to 35 fc of light for 4 days
100 grams of meat analog containing a 3:1 dose of niacin would provide 5.9 mg niacin; a 6:1 dose would provide 11.8 mg niacin.

soybean Hb (Lba), sequence (P02238 whole entry): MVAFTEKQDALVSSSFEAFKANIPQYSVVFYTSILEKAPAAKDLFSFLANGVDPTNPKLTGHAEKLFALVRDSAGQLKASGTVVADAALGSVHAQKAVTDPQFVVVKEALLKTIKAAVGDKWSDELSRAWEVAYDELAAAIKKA

B1: Lba: plant Hb (soybean hemoglobin; Lba) added to meat analog (protein, UniProt P02238 2-144, looked up)
Leghemoglobin 3: VAFTEKQDALVSSSFEAFKANIPQYSVVFYTSILEKAPAAKDLFSFLANGVDPTNPKLTGHAEKLFALVRDSAGQLKASGTVVADAALGSVHAQKAVTDPQFVVVKEALLKTIKAAVGDKWSDELSRAWEVAYDELAAAIKKA
pH 6.0
  Redness (a-value) at day 4: 4.72a
pH 6.3
  Redness (a-value) at day 4: 4.62ab
pH 6.6
  Redness (a-value) at day 4: 4.45b
pH 7.0
  Redness (a-value) at day 4: 3.99c
